Test results published in patent US11242370B2, “Neuregulin-4 compounds and methods of use” (Eli Lilly and Company, priority 2019, dated 2022).
Changes are numbered by the printed parent chain. Names and notes keep the numbering of the source. One block for each molecule: values may come before it.

Target: T1, human HER2 and HER4 (Homo sapiens, UniProt Q15303)
T1 construct: expressed in transfected cells
Assay: Screening by human HER2-HER4 mediated ERK 1/2 phosphorylation in CHO-hHER2-hHER4 (clone 1H6) cells
Type: cell-based
Settings: Fc variants as 293F supernatants
Method: A cell based assay utilizing CHO-K1 cells overexpressing human or rat HER receptors is used to determine activity of NRG4 compounds. CHO-K1 cells (ATCC) are grown in DMEM-F12 3:1 with 5% FBS with 20 mM HEPES, 40 μg/mL L-Proline, lx antibiotics and were split 1:5 every 2-3 days with TripLE Express (Gibco). Cells are transfected with plasmid DNA encoding HER receptors in pairs (hHER2-3, hHER2-4, rHER2-3 and rHER2-4) with Fugene 6 (Promega) according to the manufacturer's instructions. […] Transfected cells are selected with Puromycin (12 ug/ml) and Hygromycin (1 mg/ml) for 3-4 weeks and clonal lines are obtained by limited dilution cloning into 96 well plates. Clonal lines are selected by appropriate gene expression of HER2, HER3 or HER4 by Taqman method. Lines with appropriate receptor expression are confirmed by NRG1 induced phospho-ERK 1/2 responses. Clones are grown up, harvested, aliquoted into cryovials and then frozen under liquid nitrogen for long-term storage.
A phospho-ERK1/2 activity assay is used to determine potencies of NRG4 compounds. The potency of Examples 1-8 and 10 as compared to WT human NRG1 and/or human NRG4 are analyzed in studies measuring stimulation of human HER2-HER4 mediated ERK 1/2 phosphorylation. This assay comprises a CHO-K1 stable line expressing human HER2 and HER4. CHO-hHER2-hHER4 (clone 1H6) cells are routinely cultured in DMEM: F12(3:1), 5% FBS, 40 μg/mL L-Proline, 10 μg/mL puromycin and 1 mg/mL hygromycin at 37° C., 5% CO2. Cells are washed twice with 1×PBS, dissociated with 0.05% trypsin/[…] EDTA and collected by centrifugation at 300×g for 10 m. Cells are re-suspended in maintenance media. 20,000 cells/well, in 30 μL, are seeded into 384 well Poly-D-Lysine cell culture plates (Greiner, Cat No. 781946). Plates are covered with a manufacturer's lid and moved to a 37° C. tissue culture incubator at 5% CO^2, 80%+ humidity and allowed to adhere. After 24 h, media are removed from the plates and replaced with 30 μL serum-free starvation media (Low glucose DMEM with 0.1% BSA) using a Biomek FX liquid handler. Plates are returned to the incubator for 24 h.
hFcNRG4 variants, transiently expressed as 293F supernatants, are prepared in starvation media in a clear 384W plate (Greiner, cat no. 781185) as a 4pt 1:8 serial dilution (dose range averaged between 250 pM to 140000 pM). Media are removed from the cell culture plates and the 30 uL/well prepared variants are stamped into the plates using a Biomek FX liquid handler. Plates are sealed with a foil seal and stimulated for 15 minutes at room temperature on an orbital shaker. Cells are then washed once with 50 uL cold PBS. 30 uL lysis buffer is added to the cells and oscillated for 10 m at RT on an orbital shaker.
Detection of phosphorylation of ERR 1/2 is performed with either an AlphaScreen SureFire phospho-ERK1/2 kit (T202/Y204) (Perkin Elmer, catalog no. TGRES) or an AlphaLISA® SureFire® Ultra™ p ERK1/2 assay kit together with the AlphaScreen Protein. A IgG Detection Kit (Protein-A) (PerkinElmer, catalogue no. 6760617). After lysis of the CHO-K1 cells. 4 μL lysate is transferred to a 384W Alpha Proxiplate (Perkin Elmer, cat no, 6008280) with a 384W Biomek FX. 4 uL positive and negative lysates (Perkin Elmer, TGRES-L) are added to available wells as controls. 5 uL/well acceptor mix (containing anti-phoso-Thr202/Tyr204 antibodies and Protein A conjugated acceptor beads) is added to the plate with a Forumlatrix Mantis. The plate is sealed, spun down for 1 min at 300×g and incubated for 2 hr at room temperature on an orbital shaker. 2 μL/well donor mix (containing strepavidin coated donor beads and biotinylated antibodies to a distal ERK1/2 epitope) is dispensed by Mantis. The plate is sealed, spun down for 1 min at 300×g and incubated for 2 hr at room temperature on an orbital shaker before reading on the Perkin Elmer Envision 2103 Multilabel Reader (HIS Alpha mode, excitation time: 40 ms, total measurement time: 130 ms). […]

EC50 (Table 6): 0.319 nM
Molecule: WT NRG1: wild type human NRG1; native peptide purchased from Reprokine in Tables 7-9; comparator in the screening assays of Tables 4 and 6

EC50 (Table 5, Examples average of two replicates ± standard deviation): 2.53 nM | EC50 (Table 6): 1.3 nM
Molecule: WT NRG4: wild type human NRG4 (SEQ ID NO:1); parental hFcNRG4 in screening (Tables 4-6), native peptide from Reprokine in Tables 7-9 (DHEEPCGPSHKSFCLNGGLCYVIPTIPSPFCRCVENYTGARCEEVFL; listed as Homo sapiens)

B1: Example 10: NRG4 D1G/V22Q/E44K, (GGGGS)3 linker, SEQ ID NO: 19, fused to IgG Fc dimer SEQ ID NO: 6 and 7 (protein)
chain 1: GGGGSGGGGSGGGGSGHEEPCGPSHKSFCLNGGLCYQIPTIPSPFCRCVENYTGARCEKVFL
chain 2: ECPPCPAPPVAGPSVFLFPPKPKDTLMISRTPEVTCVVVDVSHEDPEVQFNWYVDGVEVHNAKTKPREEQFNSTFRVVSVLTVVHQDWLNGKEYKCKVSNKGLPAPIEKTISKTKGQPREPQVYTLPPSREEMTKNQVSLWCLVKGFYPSDIAVEWESNGQPENNYKTTPPVLDSDGSFFLYSKLTVDKSRWQQGNVFSCSVMHEALHNHYTQKSLSLSPG
chain 3: B1 chain 2 with W141S, L143A, Y182V
EC50 (Table 6): 0.245 nM
